According to publication PMC8607333, “Real-time kinetic studies of Mycobacterium tuberculosis LexA–DNA interaction” (Bioscience Reports, 2021):

T1: LexA WT (Mycobacterium tuberculosis, UniProt P9WHR7 1-236)
T1 sequence: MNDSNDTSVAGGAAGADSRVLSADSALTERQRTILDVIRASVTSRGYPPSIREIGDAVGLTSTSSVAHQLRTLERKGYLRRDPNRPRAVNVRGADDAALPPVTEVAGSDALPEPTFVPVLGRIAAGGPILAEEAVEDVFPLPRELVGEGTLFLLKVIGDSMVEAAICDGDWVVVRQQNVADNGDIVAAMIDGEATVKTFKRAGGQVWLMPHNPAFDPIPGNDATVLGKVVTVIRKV

T2: LexAΔ24aa (Mycobacterium tuberculosis, UniProt P9WHR7 25-236, del1-24)
T2 sequence: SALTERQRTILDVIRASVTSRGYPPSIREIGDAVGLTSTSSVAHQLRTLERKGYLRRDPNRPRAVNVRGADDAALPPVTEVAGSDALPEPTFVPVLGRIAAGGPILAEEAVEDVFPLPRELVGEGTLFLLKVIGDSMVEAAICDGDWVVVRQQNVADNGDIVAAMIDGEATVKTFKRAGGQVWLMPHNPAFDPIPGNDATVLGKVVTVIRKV

T3: LexAΔ18aa (Mycobacterium tuberculosis, UniProt P9WHR7 1-236, del94-111)
T3 sequence: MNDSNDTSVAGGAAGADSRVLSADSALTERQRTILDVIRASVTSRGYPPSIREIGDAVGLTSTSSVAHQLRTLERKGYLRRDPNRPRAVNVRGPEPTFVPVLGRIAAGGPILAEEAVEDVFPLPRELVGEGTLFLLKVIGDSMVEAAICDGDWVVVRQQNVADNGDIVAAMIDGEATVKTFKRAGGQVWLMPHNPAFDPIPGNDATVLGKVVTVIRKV


Experiments:
LexA WT = biological target: T1, LexA WT; assay: BLI; pH 7.5; BLI: 10 mM HEPES pH 7.5, 50 mM NaCl, 25 C (pH 4 buffer not stated), 1:1 global fit; […]; settings: protein: recombinant; tags: N-term 6xHis (pET28a); chain copies: 2; label: 5' biotin on strand 1; blunt
LexAΔ24aa = biological target: T2, LexAΔ24aa; assay: BLI; pH 7.5; BLI: 10 mM HEPES pH 7.5, 50 mM NaCl, 25 C (pH 4 buffer not stated), 1:1 global fit; EMSA: 10 mM HEPES pH 7.5, 50 mM NaCl, 30 min on ice, 3.5 nM DNA; settings: protein: recombinant; tags: N-term 6xHis (pET28a); chain copies: 2; label: 5' biotin on strand 1; blunt
LexAΔ18aa [1] = biological target: T3, LexAΔ18aa; assay: EMSA; 128 nM protein; BLI: 10 mM HEPES pH 7.5, 50 mM NaCl, 25 C (pH 4 buffer not stated), 1:1 global fit; EMSA: 10 mM HEPES pH 7.5, 50 mM NaCl, 30 min on ice, 3.5 nM DNA; settings: protein: recombinant; tags: 6xHis; chain copies: 2; label: 32P end label, no biotin; blunt
LexAΔ18aa [2] = biological target: T3, LexAΔ18aa; assay: BLI; pH 7.5; BLI: 10 mM HEPES pH 7.5, 50 mM NaCl, 25 C (pH 4 buffer not stated), 1:1 global fit; EMSA: 10 mM HEPES pH 7.5, 50 mM NaCl, 30 min on ice, 3.5 nM DNA; settings: protein: recombinant; tags: 6xHis; chain copies: 2; label: 5' biotin on strand 1; blunt

Binder | Kd (LexA WT) | Kd (LexAΔ24aa) | binding result (LexAΔ18aa [1]) | Kd (LexAΔ18aa [2])
dnaE2_44mer SOS box, biotinylated (dsDNA) DNA 1: ACAACTGCGCTGTATCGAACAATTGTTCGATATACTGTGGAATG DNA 2: CATTCCACAGTATATCGAACAATTGTTCGATACAGCGCAGTTGT | 2.16 ± 0.01 nM | 4.94 ± 0.03 nM |  | 
dnaE2 44mer SOS box, 32P end-labeled (dsDNA) DNA 1: ACAACTGCGCTGTATCGAACAATTGTTCGATATACTGTGGAATG DNA 2: CATTCCACAGTATATCGAACAATTGTTCGATACAGCGCAGTTGT |  |  | binds | 
rv3074_44mer SOS box, biotinylated (dsDNA) DNA 1: GCAGGCTGCTATTCTCGAACACATGTTCGAGACATTGACCGCGA DNA 2: TCGCGGTCAATGTCTCGAACATGTGTTCGAGAATAGCAGCCTGC | 3.86 ± 0.03 nM | 2.75 ± 0.04 nM |  | 43.5 ± 0.24 nM
lexA_44mer SOS box, biotinylated (dsDNA) DNA 1: CCGGAACACGCCTGTCGAACACATGTTTGATTCTTGGTGCGAAT DNA 2: ATTCGCACCAAGAATCAAACATGTGTTCGACAGGCGTGTTCCGG | 0.98 ± 0.01 nM | 2.36 ± 0.02 nM |  | 34.53 ± 0.25 nM
recA_44mer SOS box, biotinylated (dsDNA) DNA 1: GTGTCACACTTGAATCGAACAGGTGTTCGGCTACTGTGGTGATC DNA 2: GATCACCACAGTAGCCGAACACCTGTTCGATTCAAGTGTGACAC | 3.63 ± 0.02 nM | 1.67 ± 0.02 nM |  | 32.55 ± 0.22 nM
